# Measured values taken from the supplement of paper PMC7877785.
# ± gives the uncertainty stated by the source.
# Assay: self-splicing fitness, log relative to wild type (ln ratio); higher = more splicing; Tetrahymena group I intron in knt gene, E. coli kanamycin selection, DiMSum; sequences stand for … in CUCUCU…GGAGGGAAAAGUUAUCAGGCAUGCACCUGGUAGCUAGUCUUUAAACCAAUAGAUUGCAUCGGUUUAAAAGGCAAGACCGUCAAAUUGCGGGAAAGGGGUCAACAGCCGUUCAGUACCAAGUCUCAGGGGAAACUUUGAGAUGGCCUUGCAAAGGGUAUGGUAAUAAGCUGACGGACAUGGUCCUAACCACGCAGCCAAGUCCUAAGUCAACAGAUCUUCUGUUGAUAUGGAUGCAGUUCACAGACUAAAUGUCGGUCGGGGAAGAUGUAUUCUUCUCAUAAGAUAUAGUCGGACCUCUCCUUAAUGGGAGCUAGCGGAUGAAGUGAUGCAACACUGGAGCCGCUGGGAACUAAUUUGUAUGCGAAAGUAUAUUGAUUAGUUUUGGAGUACUCGUGGUCG
# Summary of the method: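 Pooled colonies went to amplicon sequencing on an Illumina HiSeq 2500 after six replicate transformations. The plates were LB agar with 100 μg/mL carbenicillin, 50 μM IPTG and 0.2% rhamnose, with or without 25 μg/mL kanamycin, incubated overnight at 37°C or 30°C. The E. coli BL21(DE3) library had all eight P1ex-region intron nucleotides randomised, the intron placed in the knt kanamycin-resistance gene on pET-22b(+). DiMSum fitness is the error-weighted combination of replicate fold changes, kanamycin against none, normalised to wild type.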
Sequence,self-splicing fitness (ln) (30 °C),self-splicing fitness (ln) (37 °C)
UCAGAGCAAUAUUACGAUGC,-3.8 ± 0.32,-1.68 ± 0.24
CCGAAGCAAUAUUACGCGCU,–,-2.26 ± 0.42
AAAAAGCAAUAUUACGGCCA,-0.43 ± 0.11,-0.0922 ± 0.15
CUAAAGCAAUAUUACGCUAA,-5.16 ± 0.45,–
CCUAAGCAAUAUUACGAGUU,-4.08 ± 0.2,-2.22 ± 0.14
GGCGAGCAAUAUUACGGUUG,-2.57 ± 0.14,-0.892 ± 0.16
AGUAAGCAAUAUUACGCUGU,-2.78 ± 0.22,-1.88 ± 0.3
UACCAGCAAUAUUACGUAGG,-3.19 ± 0.2,-2.74 ± 0.24
AGCGAGCAAUAUUACGACUC,-2.06 ± 0.21,-1.3 ± 0.24
UUACAGCAAUAUUACGACAU,-1.971 ± 0.014,-1.02 ± 0.033
CUCCAGCAAUAUUACGAGUC,-3.83 ± 0.34,-2.15 ± 0.26
UCAAAGCAAUAUUACGCAAA,-2.5 ± 0.23,-2.19 ± 0.31
GGGCAGCAAUAUUACGCGGG,-1.76 ± 0.16,-1.21 ± 0.2
UGCUAGCAAUAUUACGGAGC,–,-1.42 ± 0.41
CCUCAGCAAUAUUACGUGGG,-4.89 ± 0.25,-3.15 ± 0.19
UGUAAGCAAUAUUACGGAGC,-2.11 ± 0.33,–
AACUAGCAAUAUUACGUUGG,-3.74 ± 0.22,-3.5 ± 0.22
CACGAGCAAUAUUACGGGGU,-4.09 ± 0.23,-2.67 ± 0.16

Sequence,self-splicing fitness (ln) (30 °C),self-splicing fitness (ln) (37 °C)
CCUGAGCAAUAUUACGUGCA,-3.09 ± 0.21,-1.53 ± 0.26
CCUAAGCAAUAUUACGCAUU,-3.56 ± 0.29,-2.2 ± 0.27
AAGCAGCAAUAUUACGGUCU,-0.0787 ± 0.043,0.176 ± 0.063
UCGAAGCAAUAUUACGAGUA,-2.08 ± 0.14,-0.398 ± 0.12
AUUAAGCAAUAUUACGCCGG,-0.824 ± 0.19,-0.226 ± 0.25
GUACAGCAAUAUUACGAUAU,-2.07 ± 0.1,-1.48 ± 0.13
CUGCAGCAAUAUUACGCAAG,-2.58 ± 0.18,-2.83 ± 0.44
GACUAGCAAUAUUACGAACC,-1.64 ± 0.17,-0.0491 ± 0.19
GUGGAGCAAUAUUACGAGGG,-4.4 ± 0.33,–
UAAUAGCAAUAUUACGAUCC,-3.33 ± 0.44,–
CGCAAGCAAUAUUACGCCAG,-1.01 ± 0.094,-0.582 ± 0.13
UCCGAGCAAUAUUACGUCGG,-2.97 ± 0.44,-1.86 ± 0.35
AAGAAGCAAUAUUACGAAUG,-2.19 ± 0.13,-1.66 ± 0.14
GUUCAGCAAUAUUACGCACU,-0.633 ± 0.085,0.537 ± 0.12
GACCAGCAAUAUUACGCGCG,-0.501 ± 0.061,0.0713 ± 0.078
UUCGAGCAAUAUUACGUCGG,-2.96 ± 0.28,-1.78 ± 0.29
CCGAAGCAAUAUUACGAGUU,-2.77 ± 0.1,-2.96 ± 0.17
